Reference: PMC11241748, “DNA Repair Protein XRCC1 Stimulates Activity of DNA Polymerase λ under Conditions of Microphase Separation”

Target: XRCC1 (UniProt P18887 1-633)
Assay: DLS (DNA-induced higher-order assembly); elevated DNA concentration; Rh ~135 to ~740 nm vs 6.7 nm without DNA; DLS and microscopy buffer not given in the material; activity assay: 50 mM Tris-HCl pH 7.5, 5 mM Mg2+, 0.5 mM DTT, 0.25 mg/mL BSA, 37 °C. Kd values in Table 1 a
Settings: protein: recombinant; tags: His-tag; chain copies: 2; label: 5'-32P on upstream strand as printed; 1-nt gap (template G) between strands 1 and 2, both paired to strand 3; blunt outer ends

B1: gap-DNA (dsDNA)
DNA 1: GGCGATTAAGTTGGG
DNA 2: AACGTCAGGGTCTTCC
DNA 3: GGAAGACCCTGACGTTGCCCAACTTAATCGCC
modifications: 5'-phosphate on downstream strand (5' margin of gap)
binding result: binds
